From US20220267421A1 (INVOX PHARMA, published 2022)

T1: cynomolgus MSLN-His-Avi (cynomolgus, single biotin (BirA) in the biotinylated form)
T1 construct: Monomeric, made in HEK293-6E; also called cMSLN-His-Avi; cyno MSLN-His-Avi
T1 chain: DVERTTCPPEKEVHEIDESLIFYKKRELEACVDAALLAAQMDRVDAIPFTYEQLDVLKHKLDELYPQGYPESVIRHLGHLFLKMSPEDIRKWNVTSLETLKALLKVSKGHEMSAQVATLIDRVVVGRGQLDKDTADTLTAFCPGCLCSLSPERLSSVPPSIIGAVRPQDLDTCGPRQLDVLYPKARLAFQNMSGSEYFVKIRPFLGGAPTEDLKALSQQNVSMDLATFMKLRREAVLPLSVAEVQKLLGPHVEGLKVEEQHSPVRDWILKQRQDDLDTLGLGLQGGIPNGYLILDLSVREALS


What was measured:
human MSLN-His-Avi [1] = molecular target: T2, human MSLN-His-Avi (human, UniProt Q13421 296-598, single biotin (BirA) in the biotinylated form); assay: ratio of the two SPR KD
T2 construct: Monomeric, made in HEK293-6E; Used both immobilised and in solution; also called hMSLN-His-Avi; biotinylated hMSLN-His-Avi
Method: (§1) Human MSLN-His-Avi was immobilised on flow cell 2 on a CM5 Series S BIAcore sensor chip (GE Healthcare, BR100530) using an amine coupling kit (GE Healthcare, BR10050) to approximately 200 response units (RU). Flow cell 1 was left blank for subtraction. HEK293-6E supernatants or purified proteins were adjusted with HBS-EP+(GE Healthcare) to approximately 50 nM anti-MSLN mAb per sample. Samples were injected over flow cell 1 and 2 for 2.5 min at 30 μl/min and then allowed to dissociate in HBS-EP buffer for 2.5 min. Regeneration was achieved by injecting 10 mM glycine pH 1.5 (GE Healthcare, BR100354) for 30 seconds at a rate of 30 μl/min. Subtracted data (flow cell 2−flow cell 1) were analysed using BIAevaluation 3.2 Software (GE Healthcare).
(§2) Binding of the selected anti-MSLN clones in mAb² format, to recombinant human and cyno MSLN-His-Avi antigen was measured by SPR using a Biacore T200 processing unit (GE Healthcare). As previously described, it was desirable to bind more strongly to immobilised antigen than to soluble antigen. To assess the binding properties of the clones, binding kinetics to immobilised MSLN antigen were determined as described in section 2.1.2 and compared to the kinetics obtained when MSLN antigens in solution bound to captured clones.
(§3) For the capture experiments, clones in mAb² format were captured using a BIAcore sensor series S chip Protein G (GE Healthcare, 29179315). mAb² diluted in HBS-EP buffer (GE Healthcare, BR100188) containing 900 mM […] at 1 μg/ml, were injected individually on flow cell 2, 3 and 4 at 30 μl/min to achieve a response of approximately 100 RU. G1-AA/HeID1.3 was captured on flow cell 1. The recombinant human and cyno MSLN-His-Avi (section 1.1), diluted in HBS-EP buffer containing 900 mM […], were injected on flow cell 1, 2, 3 or 4 as appropriate at a concentration range of 1000 nM to 0.051 nM with 3-fold dilutions for 5 minutes at 70 μl/min and then allowed to dissociate in buffer for 5 minutes. Regeneration was achieved by injecting 10 mM glycine pH1.5 (GE Healthcare, BR100354) and surfactant P20 (GE Healthcare, BR-1000-54) for 20 seconds at a rate of 30 μl/min.

[2] = molecular target: T3, cell surface human mesothelin (MSLN) (human, UniProt Q13421 296-598); assay: flow cytometry, NCI-H226 cells + 20 nM soluble MSLN
T3 construct: whole, on cells; also called cell surface MSLN
Method: (§4) Cells were centrifuged at 1200 rpm for 3 min and resuspended in ice cold FACS buffer made up of DPBS (Life Technologies, 14190169) and 1% BSA (Sigma-Aldrich, A7906) at 2×10⁶ cells/ml and 50 μl per well was seeded in a 96-well V-bottom plate (Costar, 3894). All mAbs tested were diluted in FACS buffer in 120 μl at a concentration range of 0.01-200 nM (4-fold dilutions). The NCI-H226 cells were then centrifuged, supernatant removed and cells resuspended in 100 μl of each mAb dilution and incubated at 4° C. for 45 min. Cells were washed twice by centrifugation with 150 μl FACS buffer, resuspended in 100 μl containing goat anti-human IgG (γ-chain specific) F(ab′)2 fragment-R-Phycoerythrin antibody (Sigma, P8047) diluted 1:1000 in FACS buffer and incubated at 4° C. for 45 min. The cells were washed once with 150 μl FACS buffer and then with 150 μl DPBS, resuspended in 150 μl DPBS containing DAPI (Biotium, 40043) at 1:10.000 and read on the BDCantoll or iQue (Intellicyt). Data was analysed using FlowJo v10 to determine the signal geometric mean for PE for live cells in each well.
(§5) Cell binding assays using OVCAR-3 cells were performed similarly to the assays described in section 2.4. The effect of the presence of soluble MSLN was tested by pre-incubating the antibodies in the presence or absence of soluble MSLN before mixing with cells and determining if the pre-incubation affected binding to MSLN on the cell surface. […] 60 μl from each well was then added to either FACS buffer alone or to FACS buffer containing 60 μl of 40 nM recombinant hMSLN (R&D systems, 3265-MS-050) (to give a final concentration of 20 nM hMSLN) and pre-incubated at room temperature for 1 hour before 100 μl was added to the cells. Bound antibody was detected using goat anti-human anti-Fcγ Alexa-Fluor 488 (Jackson Immunoresearch, 109-546-098).
(§6) The method used was exactly as described in section 3.1.4.

human MSLN-His-Avi [3] = molecular target: T2, human MSLN-His-Avi; assay: SPR (Biacore), MSLN immobilised, mAb^2 injected
Method: as §1, §2

cynomolgus MSLN-His-Avi = molecular target: T1, cynomolgus MSLN-His-Avi; assay: SPR (Biacore), mAb^2 captured on Protein G, MSLN in solution injected
Method: as §2
as §3, with “μl/min. Subtracted data (flow cell 2−flow cell 1, flow cell 3−flow cell 1, or flow cell 4−flow cell 1) were analysed using BIAevaluation 3.2 Software (GE Healthcare) to identify binding using the model 1:1 binding, local Rmax and with refractive index (RI) constant 0.” for “μl/min.”

human MSLN-His-Avi [4] = molecular target: T2, human MSLN-His-Avi; assay: as above
Method: as §2
as §3, with “μl/min. Subtracted data (flow cell 2−flow cell 1, flow cell 3−flow cell 1, or flow cell 4−flow cell 1) were analysed using BIAevaluation 3.2 Software (GE Healthcare) to identify binding using the model 1:1 binding, local Rmax and with refractive index (RI) constant 0.” for “μl/min.”

[5] = molecular target: T3, cell surface human mesothelin (MSLN); assay: flow cytometry, NCI-H226 cells
Method: as §4, §5, §6

T3 sequence (Q13421 other isoform, or with tags, fused parts or gaps limits assumed): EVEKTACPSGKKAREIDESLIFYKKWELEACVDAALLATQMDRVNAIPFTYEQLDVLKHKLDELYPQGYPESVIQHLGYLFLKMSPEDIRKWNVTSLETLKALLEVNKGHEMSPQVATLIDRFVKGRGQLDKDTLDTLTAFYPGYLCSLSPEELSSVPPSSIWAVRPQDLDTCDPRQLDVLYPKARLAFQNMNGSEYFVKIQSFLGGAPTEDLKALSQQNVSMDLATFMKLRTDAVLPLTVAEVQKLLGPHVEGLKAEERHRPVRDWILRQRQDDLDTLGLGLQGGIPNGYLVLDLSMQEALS
T2 sequence (Q13421 other isoform, or with tags, fused parts or gaps): as the sequence (Q13421 other isoform, or with tags, fused parts or gaps limits assumed) above

Binder | Ratio of KD in solution/immobilised for human MSLN-His-Avi (human MSLN-His-Avi [1]) | EC50 [2] [nM] | Emax (MFI) [2] [MFI] | Kd (human MSLN-His-Avi [3]) [nM] | Kd (cynomolgus MSLN-His-Avi) [nM] | Kd (human MSLN-His-Avi [4]) [nM] | EC50 [5] [nM] | Emax (MFI) [5] [MFI]
FS22-053-008-AA/FS28-024-051 mAb^2 (bispecific antibody, human IgG1, kappa, L234A L235A, V domains shown, also called FS28-024-51) VH: EVQLLESGGGLVQPGGSLRLSCAASGFTLSYSSMSWVRQAPGKGLEWVSFITPSTGYTHYADSVKGRFTISRDNSKNTLYLQMNSLRAEDTAVYYCARRALIFDYWGQGTLVTVSS VL: EIVLTQSPGTLSLSPGERATLSCRASQSVSSSYLAWYQQKPGQAPRLLIYGASSRATGIPDRFSGSGSGTDFTLTISRLEPEDFAVYYCQQASSYPLTFGQGTKVEIKR | 154 | 7.47 | 1.1e+06 | 0.31 | 148 | 47.5 | 0.78 | 801000
FS22-053-008-AA/FS28-256-001 mAb^2 (bispecific antibody, human IgG1, kappa, L234A L235A, V domains shown) VH: EVQLLESGGGLVQPGGSLRLSCAASGFTFTETYMSWVRQAPGKGLEWVSNISPTYSTTNYADSVKGRFTISRDNSKNTLYLQMNSLRAEDTAVYYCARYNSYQGGLDYWGQGTLVTVSS VL: EIVLTQSPGTLSLSPGERATLSCRASQSVSSSYLAWYQQKPGQAPRLLIYGASSRATGIPDRFSGSGSGTDFTLTISRLEPEDFAVYYCQQHNQYPNTFGQGTKVEIKR | – | 5.36 | 608000 | – | – | – | 4.98 | 703000
FS22-053-008-AA/FS28-024-060 mAb^2 (bispecific antibody, human IgG1, kappa, L234A L235A, V domains shown) VH: EVQLLESGGGLVQPGGSLRLSCAASGFTLSYSSMSWVRQAPGKGLEWVSFITPSTGYTHYADSVKGRFTISRDNSKNTLYLQMNSLRAEDTAVYYCARRALWFDYWGQGTLVTVSS VL: EIVLTQSPGTLSLSPGERATLSCRASQSVSSSYLAWYQQKPGQAPRLLIYGASSRATGIPDRFSGSGSGTDFTLTISRLEPEDFAVYYCQQASSYPLTFGQGTKVEIKR | 78.6 | 25.7 | 1.23e+06 | 0.07 | 266 | 5.2 | 1.46 | 1.01e+06
FS22-053-008-AA/FS28-024-053 mAb^2 (bispecific antibody, human IgG1, kappa, L234A L235A, V domains shown, also called FS28-024-53) VH: EVQLLESGGGLVQPGGSLRLSCAASGFTLSYSSMSWVRQAPGKGLEWVSFITPSTGYTHYADSVKGRFTISRDNSKNTLYLQMNSLRAEDTAVYYCARRALVFDYWGQGTLVTVSS VL: EIVLTQSPGTLSLSPGERATLSCRASQSVSSSYLAWYQQKPGQAPRLLIYGASSRATGIPDRFSGSGSGTDFTLTISRLEPEDFAVYYCQQASSYPLTFGQGTKVEIKR | 55.3 | 7.52 | 965000 | 0.89 | 78.3 | 49.2 | 1.19 | 914000

Stronger by EC50 [2], values ahead:

Ratio of KD in solution/immobilised for human MSLN-His-Avi (human MSLN-His-Avi [1]) | EC50 [2] [nM] | Emax (MFI) [2] [MFI] | Kd (human MSLN-His-Avi [3]) [nM] | Kd (cynomolgus MSLN-His-Avi) [nM] | Kd (human MSLN-His-Avi [4]) [nM] | EC50 [5] [nM] | Emax (MFI) [5] [MFI] | Binder
– | 4.6 | 494000 | – | – | – | 6.98 | 637000 | FS22-053-008-AA/FS28-256-018 mAb^2 (bispecific antibody, human IgG1, kappa, L234A L235A, V domains shown) VH: EVQLLESGGGLVQPGGSLRLSCAASGFTFTQTYMSWVRQAPGKGLEWVSNISPTYSTTNYADSVKGRFTISRDNSKNTLYLQMNSLRAEDTAVYYCARYNAYQIGLDYWGQGTLVTVSS VL: EIVLTQSPGTLSLSPGERATLSCRASQSVSSSYLAWYQQKPGQAPRLLIYGASSRATGIPDRFSGSGSGTDFTLTISRLEPEDFAVYYCQQSYYYPITFGQGTKVEIKR
92.3 | 4.28 | 986000 | 0.36 | 185 | 33.1 | 1.32 | 958000 | FS22-053-008-AA/FS28-024-052 mAb^2 (bispecific antibody, human IgG1, kappa, L234A L235A, V domains shown, also called FS28-024-52) VH: EVQLLESGGGLVQPGGSLRLSCAASGFTLSYSSMSWVRQAPGKGLEWVSFITPSTGYTHYADSVKGRFTISRDNSKNTLYLQMNSLRAEDTAVYYCARRALLFDYWGQGTLVTVSS VL: EIVLTQSPGTLSLSPGERATLSCRASQSVSSSYLAWYQQKPGQAPRLLIYGASSRATGIPDRFSGSGSGTDFTLTISRLEPEDFAVYYCQQASSYPLTFGQGTKVEIKR
– | 3.91 | 654000 | – | – | – | 5.3 | 760000 | FS22-053-008-AA/FS28-256-005 mAb^2 (bispecific antibody, human IgG1, kappa, L234A L235A, V domains shown) VH: EVQLLESGGGLVQPGGSLRLSCAASGFTFTETYMSWVRQAPGKGLEWVSNISPTYSTTNYADSVKGRFTISRDNSKNTLYLQMNSLRAEDTAVYYCARYNSYQGGLDYWGQGTLVTVSS VL: EIVLTQSPGTLSLSPGERATLSCRASQSVSSSYLAWYQQKPGQAPRLLIYGASSRATGIPDRFSGSGSGTDFTLTISRLEPEDFAVYYCQQALGYPHTFGQGTKVEIKR
– | 2.72 | 616000 | – | – | – | 3.11 | 771000 | FS22-053-008-AA/FS28-256-014 mAb^2 (bispecific antibody, human IgG1, kappa, L234A L235A, V domains shown) VH: EVQLLESGGGLVQPGGSLRLSCAASGFTFTDTYMSWVRQAPGKGLEWVSNISPTYSTTNYADSVKGRFTISRDNSKNTLYLQMNSLRAEDTAVYYCARYNAYAAGLDYWGQGTLVTVSS VL: EIVLTQSPGTLSLSPGERATLSCRASQSVSSSYLAWYQQKPGQAPRLLIYGASSRATGIPDRFSGSGSGTDFTLTISRLEPEDFAVYYCQQSYYYPITFGQGTKVEIKR
